Values belong to the binder of their own block, whether it stands above or below them.
How the values were obtained:
Experiment in all cases: holdup assay
Parameters in all cases: key: below the threshold = too weak to quantify, mostly under pKd 3.1 to 4
[1] = biological target: PDLIM1, O00151
[2] = biological target: T1, ARHGEF11, O15085
T1 sequence (O15085 42-136, limits assumed, looked up): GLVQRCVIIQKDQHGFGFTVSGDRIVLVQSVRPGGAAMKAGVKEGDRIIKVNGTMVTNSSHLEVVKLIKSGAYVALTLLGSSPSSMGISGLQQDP

[3] = biological target: T2, RAPGEF6, Q8TEU7
T2 sequence (Q8TEU7 525-625, limits assumed, looked up): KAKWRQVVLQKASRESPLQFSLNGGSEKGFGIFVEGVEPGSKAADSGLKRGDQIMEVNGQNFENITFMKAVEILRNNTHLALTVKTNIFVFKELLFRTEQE

[4] = biological target: PTPN3, P26045
Sequence of PTPN3, P26045 (P26045 505-587): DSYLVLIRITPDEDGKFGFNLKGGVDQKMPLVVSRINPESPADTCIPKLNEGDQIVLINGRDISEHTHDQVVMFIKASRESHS

[5] = biological target: Inadl_3, Q8NI35
Sequence of Inadl_3, Q8NI35 (Q8NI35 359-469): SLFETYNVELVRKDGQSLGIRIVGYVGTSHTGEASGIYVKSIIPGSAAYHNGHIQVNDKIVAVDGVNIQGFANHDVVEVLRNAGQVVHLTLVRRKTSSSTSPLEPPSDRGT

[6] = biological target: Inadl_2, Q8NI35
Sequence of Inadl_2, Q8NI35 (Q8NI35 238-335): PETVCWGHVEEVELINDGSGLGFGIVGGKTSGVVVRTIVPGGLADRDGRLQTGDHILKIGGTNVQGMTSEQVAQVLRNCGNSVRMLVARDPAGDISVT

[7] = biological target: T3, RADIL, Q96JH8
T3 sequence (Q96JH8 971-1071, limits assumed, looked up): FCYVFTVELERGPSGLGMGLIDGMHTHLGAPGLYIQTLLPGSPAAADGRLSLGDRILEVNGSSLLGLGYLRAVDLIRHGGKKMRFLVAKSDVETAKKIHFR

[8] = biological target: TJP1_3, Q07157
Sequence of TJP1_3, Q07157 (Q07157 416-512): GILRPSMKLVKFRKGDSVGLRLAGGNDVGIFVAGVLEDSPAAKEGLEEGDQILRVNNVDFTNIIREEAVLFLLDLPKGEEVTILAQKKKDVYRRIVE

[9] = biological target: Inadl_6, Q8NI35
Sequence of Inadl_6, Q8NI35 (Q8NI35 1058-1167): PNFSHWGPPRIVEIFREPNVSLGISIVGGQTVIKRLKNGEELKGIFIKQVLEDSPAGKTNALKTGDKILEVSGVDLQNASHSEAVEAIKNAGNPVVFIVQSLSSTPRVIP

[10] = biological target: T4, CARD11, Q9BXL7
T4 sequence (Q9BXL7 662-765, limits assumed, looked up): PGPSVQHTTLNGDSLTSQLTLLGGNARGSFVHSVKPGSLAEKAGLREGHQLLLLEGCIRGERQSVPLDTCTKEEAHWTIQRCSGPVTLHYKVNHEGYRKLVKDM

[11] = biological target: HTRA2, O43464
Sequence of HTRA2, O43464 (O43464 355-458): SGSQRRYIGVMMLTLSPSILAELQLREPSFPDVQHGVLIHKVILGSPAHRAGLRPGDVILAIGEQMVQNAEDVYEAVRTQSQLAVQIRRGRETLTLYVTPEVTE

[12] = biological target: T5, SIPA1L2, Q9P2F8
T5 sequence (Q9P2F8 945-1036, limits assumed, looked up): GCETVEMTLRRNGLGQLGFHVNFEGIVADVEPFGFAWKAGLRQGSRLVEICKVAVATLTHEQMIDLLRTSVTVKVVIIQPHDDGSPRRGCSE

[13] = biological target: GRIP2_5, Q9C0E4
Sequence of GRIP2_5, Q9C0E4 (Q9C0E4 544-642): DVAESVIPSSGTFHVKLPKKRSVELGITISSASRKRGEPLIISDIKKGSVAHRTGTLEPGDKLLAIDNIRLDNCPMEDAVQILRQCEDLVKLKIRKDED

[14] = biological target: NHERF4_4, Q86UT5
Sequence of NHERF4_4, Q86UT5 (Q86UT5 464-550): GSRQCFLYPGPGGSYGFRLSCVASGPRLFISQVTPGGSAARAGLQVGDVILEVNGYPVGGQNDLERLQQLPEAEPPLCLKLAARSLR

[15] = biological target: IL16_4, Q14005
Sequence of IL16_4, Q14005 (Q14005 1229-1329): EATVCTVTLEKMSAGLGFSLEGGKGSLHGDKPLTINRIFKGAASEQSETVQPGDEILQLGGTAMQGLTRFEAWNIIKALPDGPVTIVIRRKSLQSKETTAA

[16] = biological target: MAGI1_2, Q96QZ7
Sequence of MAGI1_2, Q96QZ7 (Q96QZ7 456-580): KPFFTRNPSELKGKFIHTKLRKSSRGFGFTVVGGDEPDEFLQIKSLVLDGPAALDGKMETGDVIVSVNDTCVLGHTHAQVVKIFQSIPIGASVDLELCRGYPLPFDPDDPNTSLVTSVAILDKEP

[17] = biological target: T6, MPP6, Q9NZW5
T6 sequence (Q9NZW5 125-219, limits assumed, looked up): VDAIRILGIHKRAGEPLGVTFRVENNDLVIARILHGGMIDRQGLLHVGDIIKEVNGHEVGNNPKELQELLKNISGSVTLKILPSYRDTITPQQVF

[18] = biological target: T7, LIN7C, Q9NUP9
T7 sequence (Q9NUP9 88-185, limits assumed, looked up): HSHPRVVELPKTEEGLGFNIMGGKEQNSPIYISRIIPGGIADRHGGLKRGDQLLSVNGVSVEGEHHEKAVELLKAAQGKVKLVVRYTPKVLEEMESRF

[19] = biological target: T8, DVL3, Q92997
T8 sequence (Q92997 244-331, limits assumed, looked up): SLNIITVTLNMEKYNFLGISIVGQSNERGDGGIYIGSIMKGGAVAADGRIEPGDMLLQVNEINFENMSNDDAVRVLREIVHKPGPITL

[20] = biological target: T9, ARHGAP21, Q5T5U3
T9 sequence (Q5T5U3 45-169, limits assumed, looked up): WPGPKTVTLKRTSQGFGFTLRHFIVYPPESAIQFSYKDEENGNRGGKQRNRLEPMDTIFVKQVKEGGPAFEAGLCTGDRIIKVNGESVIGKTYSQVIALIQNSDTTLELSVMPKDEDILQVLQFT

[21] = biological target: T10, MPDZ_5, O75970
T10 sequence (O75970 695-796, limits assumed, looked up): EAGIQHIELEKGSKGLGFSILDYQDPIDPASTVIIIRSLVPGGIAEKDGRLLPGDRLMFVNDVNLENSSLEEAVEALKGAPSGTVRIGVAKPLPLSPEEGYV

[22] = biological target: ARHGEF12, Q9NZN5-2
Sequence of ARHGEF12, Q9NZN5-2 (Q9NZN5 other isoform, or with tags, fused parts or gaps): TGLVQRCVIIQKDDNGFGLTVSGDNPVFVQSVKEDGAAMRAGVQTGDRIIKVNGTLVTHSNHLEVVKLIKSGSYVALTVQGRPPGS

[23] = biological target: GIPC2, Q8TF65
Sequence of GIPC2, Q8TF65 (Q8TF65 112-203): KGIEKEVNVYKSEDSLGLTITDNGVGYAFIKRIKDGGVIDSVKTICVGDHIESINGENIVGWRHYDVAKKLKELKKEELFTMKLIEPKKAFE

[24] = biological target: T11, MPDZ_10, O75970
T11 sequence (O75970 1624-1722, limits assumed, looked up): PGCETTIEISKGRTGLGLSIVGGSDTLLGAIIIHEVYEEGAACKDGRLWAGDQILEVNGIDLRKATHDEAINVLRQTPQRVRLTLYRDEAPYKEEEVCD

[25] = biological target: T12, PTPN13_1, Q12923
T12 sequence (Q12923 1088-1188, limits assumed, looked up): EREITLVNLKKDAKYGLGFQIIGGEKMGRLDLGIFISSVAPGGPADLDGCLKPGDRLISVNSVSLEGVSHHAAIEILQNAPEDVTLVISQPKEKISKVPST

[26] = plain residues with an end cap or a label only (N-terminal biotin on a linker: ahx)
[27] = plain residues with an end cap or a label only (N-terminal biotin on a linker: ttds)

Sequence of PDLIM1, O00151 (O00151 1-87): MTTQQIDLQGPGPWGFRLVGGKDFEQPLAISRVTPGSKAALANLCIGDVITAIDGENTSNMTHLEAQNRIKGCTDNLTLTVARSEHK

- pKd [1, 26]: 3.63
- pKd [2, 26]: below the threshold
- pKd [3, 26]: below the threshold
- pKd [4, 26]: 4.52
- pKd [5, 26]: 3.62
- pKd [6, 26]: below the threshold
- pKd [7, 26]: 4.45
- pKd [8, 26]: below the threshold
- pKd [9, 26]: 4.1
- pKd [10, 26]: below the threshold
- pKd [11, 26]: 3.94
- pKd [12, 26]: below the threshold
- pKd [13, 26]: below the threshold
- pKd [14, 26]: below the threshold
- pKd [15, 26]: below the threshold
- pKd [16, 26]: below the threshold
- pKd [17, 26]: below the threshold
- pKd [18, 26]: 3.47
- pKd [19, 26]: below the threshold
- pKd [20, 26]: below the threshold
- pKd [21, 26]: below the threshold
- pKd [22, 26]: below the threshold
- pKd [23, 26]: below the threshold
- pKd [24, 26]: 3.6
- pKd [25, 26]: below the threshold
Binder: TIVSWPGTFL [LNX1, Q8TBB1]

- pKd [1, 27]: below the threshold
- pKd [2, 27]: below the threshold
- pKd [3, 27]: below the threshold
- pKd [4, 27]: 4.84
- pKd [5, 27]: below the threshold
- pKd [6, 27]: below the threshold
- pKd [7, 27]: 3.69
- pKd [8, 27]: below the threshold
- pKd [9, 27]: 4.06
- pKd [10, 27]: below the threshold
- pKd [11, 27]: below the threshold
- pKd [12, 27]: below the threshold
- pKd [13, 27]: below the threshold
- pKd [14, 27]: below the threshold
- pKd [15, 27]: below the threshold
- pKd [16, 27]: below the threshold
- pKd [17, 27]: below the threshold
- pKd [18, 27]: 4.21
- pKd [19, 27]: below the threshold
- pKd [20, 27]: below the threshold
- pKd [21, 27]: below the threshold
- pKd [22, 27]: 3.91
- pKd [23, 27]: 3.78
- pKd [24, 27]: below the threshold
- pKd [25, 27]: below the threshold
Binder: QFQYAKESYI [TAGAP, Q8N103]

- pKd [1, 27]: below the threshold
- pKd [2, 27]: 4.52
- pKd [3, 27]: 3.63
- pKd [4, 27]: 4.4
- pKd [5, 27]: 3.54
- pKd [6, 27]: below the threshold
- pKd [7, 27]: 4.59
- pKd [8, 27]: below the threshold
- pKd [9, 27]: 3.88
- pKd [10, 27]: below the threshold
- pKd [11, 27]: 3.8
- pKd [12, 27]: below the threshold
- pKd [13, 27]: below the threshold
- pKd [14, 27]: below the threshold
- pKd [15, 27]: below the threshold
- pKd [16, 27]: 4.1
- pKd [17, 27]: 3.54
- pKd [18, 27]: 4.38
- pKd [19, 27]: below the threshold
- pKd [20, 27]: below the threshold
- pKd [21, 27]: below the threshold
- pKd [22, 27]: 4.67
- pKd [23, 27]: below the threshold
- pKd [24, 27]: 4.14
- pKd [25, 27]: below the threshold
Binder: LCALPKVTTV [AGMAT, Q9BSE5]
